From patent US7558625B2, “Combined micro-channel generation and iontophoresis for transdermal delivery of pharmaceutical agents” (TransPharma Medical Ltd., priority 2004, dated 2009)

Tests used:
[1] = Transdermal delivery of hGH by ViaDerm and iontophoresis in rats, high/low hGH dose vs SC; assay type: in vivo; design: hGH plasma levels: unit not given here; details: for hGH plasma levels: Avg.
Procedure: In the present experiment a power supply (parallel connection instead of serial) was used in order to improve the power supply.
Human GH solution was prepared from a 12 mg Genotropin vial (Genotropin®, Pharmacia and Upjohn). The levels of hGH in serum were analyzed using Elisa kit (DSL Inc. Webster Tex., USA). HPLC was used to quantitate SC solution.
ViaDerm operating parameters: Burst length—700 μsec; Voltage—330V; Number of bursts—2; 2 applications on the same skin area (150 micro-channels/cm^2); Two application sites (total area 2.8 cm^2); Without current limitation; 80 μm diameter electrode of the electrode arrays.
Iontophoresis application parameters: Current density 0.64 mA/cm^2 (total 1.8 mA). Current elevation time (from 0-max) 20 seconds. Current application time 8 hours.

[2] = Transdermal delivery of hGH by ViaDerm and iontophoresis in anesthetized rats, serum hGH (Elisa); assay type: in vivo; details: for Serum hGH levels: ViaDerm, Avg.; for AUC: serum hGH, 1.5 mg hGH patch
Procedure: Two groups of rats were tested. […] One group was connected to a power supply (constructed in house) and the other was not. The hGH loaded patch was connected to the negative pole of the power supply.
Rats (males, 300-325 gr, Sprague Dawley) were kept under anesthesia throughout the experiment. The following experimental groups were investigated: • Group 1—Passive delivery: 3 rats were treated with ViaDerm on two adjacent sites (total area 2.8 cm^2) over which the iontophoresis patch was placed. The reference electrode assembly was placed on a shaved intact skin on the back of the anal. The power supply was not turned on. • Group 2—Iontophoresis delivery: 3 rats were treated with ViaDerm on two adjacent sites (total area 2.8 cm^2) over which the iontophoresis patch was placed. The reference electrode assembly was placed on a shaved intact skin on the back of the animal. The power supply was turned on.
ViaDenm operating parameters: Burst length—700 μsec; Voltage—330V; Number of bursts—2; Two applications on the same skin area (150 pores/cm^2); Without current limitation; 80 μm diameter electrode arrays; Current density used: 0.18 mA/cm^2.
To detect hGH levels in serum—Elisa kit (DSL Inc. Webster, Tex., USA) was used.

[3] = ViaDerm + Iontophoresis off 15 mg
[4] = ViaDerm + Iontophoresis on 1.5 mg
[5] = ViaDerm + Iontophoresis on 15 mg

“hGH: human growth hormone (Genotropin, Pharmacia and Upjohn)” showed a hGH plasma levels ([1]; 1.5 mg hGH, Iontoph. on, +VD, 0.0 hr) of 0.1, a hGH plasma levels ([1]; 1.5 mg hGH, Iontoph. on, +VD, 1.0 hr) of 225.1 and a hGH plasma levels ([1]; 1.5 mg hGH, Iontoph. on, +VD, 2.0 hr) of 346.3. It also gave a hGH plasma levels ([1]; 1.5 mg hGH, Iontoph. on, +VD, 3.0 hr) of 617.3, a hGH plasma levels ([1]; 1.5 mg hGH, Iontoph. on, +VD, 4.0 hr) of 444.5 and a hGH plasma levels ([1]; 1.5 mg hGH, Iontoph. on, +VD, 6.0 hr) of 184.3. The hGH plasma levels ([1]; 1.5 mg hGH, Iontoph. on, +VD, 8.0 hr) was 111.3, the hGH plasma levels ([1]; 15 mg hGH, Iontoph. off, +VD, 0.0 hr) was 0.1 and the hGH plasma levels ([1]; 15 mg hGH, Iontoph. off, +VD, 1.0 hr) was 89.7. The hGH plasma levels ([1]; 15 mg hGH, Iontoph. off, +VD, 2.0 hr) was 178.7, the hGH plasma levels ([1]; 15 mg hGH, Iontoph. off, +VD, 3.0 hr) was 283.7 and the hGH plasma levels ([1]; 15 mg hGH, Iontoph. off, +VD, 4.0 hr) was 389.4. For the same substance, the hGH plasma levels ([1]; 15 mg hGH, Iontoph. off, +VD, 6.0 hr) was 573.1, the hGH plasma levels ([1]; 15 mg hGH, Iontoph. off, +VD, 8.0 hr) was 873.4 and the hGH plasma levels ([1]; 15 mg hGH, Iontoph. on, +VD, 0.0 hr) was 0.0. It also gave a hGH plasma levels ([1]; 15 mg hGH, Iontoph. on, +VD, 1.0 hr) of 504.8, a hGH plasma levels ([1]; 15 mg hGH, Iontoph. on, +VD, 2.0 hr) of 958.5 and a hGH plasma levels ([1]; 15 mg hGH, Iontoph. on, +VD, 3.0 hr) of 2011.6. The hGH plasma levels ([1]; 15 mg hGH, Iontoph. on, +VD, 4.0 hr) was 2204.9, the hGH plasma levels ([1]; 15 mg hGH, Iontoph. on, +VD, 6.0 hr) was 1802.0 and the hGH plasma levels ([1]; 15 mg hGH, Iontoph. on, +VD, 8.0 hr) was 1244.1. The hGH plasma levels ([1]; 15 mg hGH, Iontoph. on, intact, 0.0 hr) was 0.1, the hGH plasma levels ([1]; 15 mg hGH, Iontoph. on, intact, 1.0 hr) was 1.9 and the hGH plasma levels ([1]; 15 mg hGH, Iontoph. on, intact, 2.0 hr) was 7.2. It also gave a hGH plasma levels ([1]; 15 mg hGH, Iontoph. on, intact, 3.0 hr) of 8.3, a hGH plasma levels ([1]; 15 mg hGH, Iontoph. on, intact, 4.0 hr) of 9.2 and a hGH plasma levels ([1]; 15 mg hGH, Iontoph. on, intact, 6.0 hr) of 5.4. It also gave a hGH plasma levels ([1]; 15 mg hGH, Iontoph. on, intact, 8.0 hr) of 4.7, an AUC ([1]; Intact + Iontophoresis 15 mg) of 47 ng·h/mL and a Bioavailability ([1]; Intact + Iontophoresis 15 mg) of 0.05%. The hGH plasma levels ([1]; S.C. 150 ug/0.2 ml hGH, 0.0 hr) was 0.1, the hGH plasma levels ([1]; S.C. 150 ug/0.2 ml hGH, 1.0 hr) was 153.0 and the hGH plasma levels ([1]; S.C. 150 ug/0.2 ml hGH, 2.0 hr) was 156.8. For the same substance, the hGH plasma levels ([1]; S.C. 150 ug/0.2 ml hGH, 3.0 hr) was 127.8, the hGH plasma levels ([1]; S.C. 150 ug/0.2 ml hGH, 4.0 hr) was 120.1 and the hGH plasma levels ([1]; S.C. 150 ug/0.2 ml hGH, 6.0 hr) was 75.3. For the same substance, the hGH plasma levels ([1]; S.C. 150 ug/0.2 ml hGH, 8.0 hr) was 43.4, the AUC ([1]; SC 150 ug) was 812 ng·h/mL and the Bioavailability ([1]; SC 150 ug (reference)) was 100%. The AUC [1, 3] was 3156 ng·h/mL, the Bioavailability [1, 3] was 3.9% and the AUC [1, 4] was 2336 ng·h/mL. For the same substance, the Bioavailability [1, 4] was 28.8%, the AUC [1, 5] was 11630 ng·h/mL and the Bioavailability [1, 5] was 14.3%. The “clinical observations at the site of the patch application” value ([1]; abdomen, current on 0.64 mA/cm^2 for 8 hours) was “Black burning marks (3rd degree burns)”, the “clinical observations at the site of the patch application” value ([1]; animals in which the power supply was off) was “No burn marks” and the “hGH delivery by iontophoresis alone” value ([1]; intact skin, 15 mg hGH) was “does not cause hGH delivery”. The “AUC of ViaDerm and iontophoresis versus ViaDerm only (passive delivery)” value [2] was 3.5 fold, the “skin observation after removal of the iontophoretic patches” value ([2]; 0.18 mA/cm^2, end of experiment) was “burn marks were seen at the contact area of the electrode” and the “duration of hGH delivery” value ([2]; ViaDerm treated skin) was “more than 6 hours”. For the same substance, the “Serum hGH levels” value ([2]; Passive Patch 1.5 mg hGH, 0 h) was 0.1 ng/mL, the “Serum hGH levels” value ([2]; Passive Patch 1.5 mg hGH, 0.75 h) was 5.1 ng/mL and the “Serum hGH levels” value ([2]; Passive Patch 1.5 mg hGH, 1.5 h) was 14.0 ng/mL. The “Serum hGH levels” value ([2]; Passive Patch 1.5 mg hGH, 2.25 h) was 23.3 ng/mL, the “Serum hGH levels” value ([2]; Passive Patch 1.5 mg hGH, 3 h) was 40.8 ng/mL and the “Serum hGH levels” value ([2]; Passive Patch 1.5 mg hGH, 6 h) was 34.0 ng/mL. For the same substance, the “Serum hGH levels” value ([2]; Patch 1.5 mg hGH + Iontophoresis, 0 h) was 0.1 ng/mL, the “Serum hGH levels” value ([2]; Patch 1.5 mg hGH + Iontophoresis, 0.75 h) was 22.7 ng/mL and the “Serum hGH levels” value ([2]; Patch 1.5 mg hGH + Iontophoresis, 1.5 h) was 61.1 ng/mL. The “Serum hGH levels” value ([2]; Patch 1.5 mg hGH + Iontophoresis, 2.25 h) was 109.8 ng/mL, the “Serum hGH levels” value ([2]; Patch 1.5 mg hGH + Iontophoresis, 3 h) was 128.9 ng/mL and the “Serum hGH levels” value ([2]; Patch 1.5 mg hGH + Iontophoresis, 6 h) was 175.1 ng/mL. It also gave an AUC ([2]; ViaDerm and iontophoresis) of 637 ng·h/mL and an AUC ([2]; ViaDerm only (passive delivery)) of 182 ng·h/mL.
